Reference: the supplement of paper PMC10724198
± gives the standard deviation of the averaged measurements.

What was measured:
Saccharomyces cerevisiae [1] = test: protein stability index of tFT-peptide fusion (C-terminal peptide) (PSI (0-1 scale)); higher = more stable (slower turnover); conditions: genetic background: wild type; temperature: 30 C
Saccharomyces cerevisiae [2] = test: as above
Description: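 MPS profiling in S. cerevisiae of the tFT-X12 degron library: putative degron peptides plus stable controls, 12 aa, fused to the C-terminus of a sfGFP-mCherry timer. Cells are FACS-sorted into 8 mCherry/sfGFP bins and deep-sequenced. PSI runs from 0 (unstable) to 1 (stable). Backgrounds are wild type, das1Δ and doa10Δ at 30 °C, and wild type, das1Δ, cdc34-1 and cdc53-1 at 37 °C; 2-3 technical replicates each.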

[3] = genetic background: cdc34-1, temperature: 37 C
[4] = genetic background: cdc53-1, temperature: 37 C
[5] = genetic background: das1 deletion, temperature: 30 C
[6] = genetic background: das1 deletion, temperature: 37 C
[7] = genetic background: doa10 deletion, temperature: 30 C
[8] = genetic background: wild type, temperature: 30 C
[9] = genetic background: wild type, temperature: 37 C
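Note: PSI is a weighted mean of sequencing reads over stability bins, variants kept only with over 10 reads, mCherry proximal and sfGFP distal, peptide attached via GGGS linker.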

Sequence | protein stability index (Saccharomyces cerevisiae [1]) | protein stability index (Saccharomyces cerevisiae [2]; [3]) | protein stability index (Saccharomyces cerevisiae [2]; [4]) | protein stability index (Saccharomyces cerevisiae [2]; [5]) | protein stability index (Saccharomyces cerevisiae [2]; [6]) | protein stability index (Saccharomyces cerevisiae [2]; [7]) | protein stability index (Saccharomyces cerevisiae [2]; [8]) | protein stability index (Saccharomyces cerevisiae [2]; [9])
TMSGVTRCVLVL | 0.423 ± 0.015 | 0.521 ± 0.048 | 0.526 ± 0.04 | 0.385 ± 0.026 | 0.5463 ± 0.0053 | 0.339 ± 0.015 | 0.395 ± 0.02 | 0.5379 ± 0.0049
TNEWMDVKVFCY | 0.491 ± 0.088 | 0.668 ± 0.0073 | 0.701 ± 0.052 | 0.499 ± 0.049 | 0.676 ± 0.0097 | 0.449 ± 0.028 | 0.486 ± 0.04 | 0.6398 ± 0.0051
TSFSSGEALGVG | 0.483 ± 0.01 | 0.437 ± 0.0066 | 0.503 ± 0.021 | 0.442 ± 0.0075 | 0.5 ± 0.0091 | 0.4553 ± 0.0011 | 0.445 ± 0.013 | 0.48763 ± 3.8e-05
TVHVIVVCRELA | 0.3271 ± 0.0022 | 0.4698 ± 0.0034 | 0.518 ± 0.015 | 0.39 ± 0.03 | 0.52 ± 0.017 | 0.201 ± 0.014 | 0.244 ± 0.025 | 0.381 ± 0.007
TVRLPLILPCVL | 0.4884 ± 0.0042 | 0.5752 ± 0.0049 | 0.573 ± 0.031 | 0.421 ± 0.028 | 0.5669 ± 0.0053 | 0.414 ± 0.0034 | 0.42 ± 0.025 | 0.55 ± 0.013
TVRVWPRNLWFS | 0.176 ± 0.021 | 0.519 ± 0.048 | 0.677 ± 0.017 | 0.639 ± 0.021 | 0.7273 ± 0.0018 | 0.111 ± 0.0029 | 0.111 ± 0.021 | 0.235 ± 0.031
TWGGGRVSLGVG | 0.328 ± 0.016 | 0.313 ± 0.029 | 0.3966 ± 0.0028 | 0.326 ± 0.011 | 0.405 ± 0.018 | 0.3442 ± 0.0015 | 0.359 ± 0.044 | 0.401 ± 0.022
TYHRSYLLATVV | 0.314 ± 0.025 | 0.49857 ± 0.00019 | 0.55 ± 0.08 | 0.378 ± 0.028 | 0.543 ± 0.016 | 0.181 ± 0.0023 | 0.224 ± 0.024 | 0.331 ± 0.00026
VACTCILVALVV | 0.142 ± 0.035 | 0.059 ± 0.0069 | 0.164 ± 0.02 | 0.0772 ± 0.027 | 0.198 ± 0.0045 | 0.0424 ± 0.0038 | 0.0686 ± 0.035 | 0.165 ± 0.005
VAFLYCHFFYCI | 0.415 ± 0.013 | 0.502 ± 0.063 | 0.531 ± 0.013 | 0.391 ± 0.029 | 0.53095 ± 0.00027 | 0.342 ± 0.0038 | 0.37 ± 0.014 | 0.47 ± 0.009
VAVFFFCRVFFL | 0.289 ± 0.026 | 0.248 ± 0.062 | 0.339 ± 0.005 | 0.221 ± 0.037 | 0.412 ± 0.0042 | 0.186 ± 0.02 | 0.211 ± 0.024 | 0.318 ± 0.04
VCCYILFFLFPV | 0.418 ± 0.011 | 0.401 ± 0.0048 | 0.522 ± 0.008 | 0.349 ± 0.025 | 0.568 ± 0.024 | 0.322 ± 0.0058 | 0.337 ± 0.026 | 0.506 ± 0.018
VCLRICLVTLMM | 0.428 ± 0.03 | 0.3 ± 0.019 | 0.444 ± 0.011 | 0.284 ± 0.032 | 0.4615 ± 0.0026 | 0.2405 ± 0.0017 | 0.261 ± 0.033 | 0.4126 ± 0.0014
VCPCCPYVMIAG | 0.489 ± 0.018 | 0.598 ± 0.061 | 0.641 ± 0.04 | 0.498 ± 0.027 | 0.647 ± 0.0012 | 0.318 ± 0.0013 | 0.336 ± 0.043 | 0.494 ± 0.0062
VCSCLVLVFCCC | 0.298 ± 0.037 | 0.232 ± 0.018 | 0.222 ± 0.018 | 0.232 ± 0.036 | 0.318 ± 0.0068 | 0.207 ± 0.025 | 0.237 ± 0.015 | 0.285 ± 0.024
VCVARICIWDFL | 0.51 ± 0.033 | 0.505 ± 0.043 | 0.589 ± 0.027 | 0.446 ± 0.035 | 0.594 ± 0.014 | 0.413 ± 0.0074 | 0.438 ± 0.013 | 0.596 ± 0.0092
VCWVYESWKCLA | 0.168 ± 0.026 | 0.438 ± 0.038 | 0.571 ± 0.043 | 0.536 ± 0.027 | 0.672 ± 0.0075 | 0.0888 ± 0.014 | 0.103 ± 0.0097 | 0.107 ± 0.013
VCYLMRSLTFAY | 0.45 ± 0.0099 | 0.4968 ± 0.0039 | 0.546 ± 0.006 | 0.345 ± 0.029 | 0.494 ± 0.0096 | 0.319 ± 0.021 | 0.337 ± 0.024 | 0.4733 ± 0.0016
VECVCVVVVRRM | 0.351 ± 0.017 | 0.391 ± 0.0055 | 0.497 ± 0.03 | 0.313 ± 0.023 | 0.493 ± 0.01 | 0.266 ± 0.0088 | 0.31 ± 0.021 | 0.466 ± 0.021
